Measured values published in publication PMC6365180 (Structure (London, England : 1993), 2018).

Biological target: TATA box-binding protein (TBP) (UniProt P20226 1-339)
Test: SPR

TATA box-binding protein (TBP), sequence (P20226 whole entry): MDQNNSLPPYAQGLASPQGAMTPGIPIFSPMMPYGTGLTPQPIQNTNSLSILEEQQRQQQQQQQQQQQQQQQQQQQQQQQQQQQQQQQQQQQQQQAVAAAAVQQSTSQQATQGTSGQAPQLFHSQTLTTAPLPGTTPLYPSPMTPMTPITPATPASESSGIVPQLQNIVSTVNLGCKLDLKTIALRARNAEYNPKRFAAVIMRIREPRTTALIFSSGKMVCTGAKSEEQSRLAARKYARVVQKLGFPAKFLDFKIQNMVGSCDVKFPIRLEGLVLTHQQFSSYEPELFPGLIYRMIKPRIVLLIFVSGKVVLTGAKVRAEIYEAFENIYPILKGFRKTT

B1: N-terminal transactivation domain (NTD) of human estrogen receptor alpha, wild type (SNA-M1-Y184) (domain or fragment)
chain: SNAMTMTLHTKASGMALLHQIQGNELEPLNRPQLKIPLERPLGEVYLDSSKPAVYNYPEGAAYEFNAAAAANAQVYGQTGLPYGPGSEAAAFGSNGLGGFPPLNSVSPSPLMLLHPPPQLSPFLQPHGQQVPYYLENEPSGYTVREAGPPAFYRPNSDNRRQGGRERLASTNDKGSMAMESAKETRY
  Kd: 53 ± 12 µM

B2: N-terminal transactivation domain (NTD) of human estrogen receptor alpha, S118D mutant (domain or fragment)
chain: SNAMTMTLHTKASGMALLHQIQGNELEPLNRPQLKIPLERPLGEVYLDSSKPAVYNYPEGAAYEFNAAAAANAQVYGQTGLPYGPGSEAAAFGSNGLGGFPPLNSVSPSPLMLLHPPPQLDPFLQPHGQQVPYYLENEPSGYTVREAGPPAFYRPNSDNRRQGGRERLASTNDKGSMAMESAKETRY
  Kd: 3.9 ± 0.4 µM
